B1: AXIN1 peptide 237-252 (Axin-1), 16-mer library wild type / PP2A B56 (PPP2R5A B56 domain, residues 1-486) (parent complex)
chain 1: YLPTLNEDEEWKADQD
chain 2: not shown
B2: SH3BP2 peptide 408-423 (SH3 domain-binding protein 2), 16-mer library wild type / TNKS ANK (TNKS 12 ANK repeats, residues 174-649) (parent complex)
chain 1: PQLPHLQRSPPDGQSF
chain 2: TGVPAVSGALRELLEACRNGDVSRVKRLVDAANVNAKDMAGRKSSPLHFAAGFGRKDVVEHLLQMGANVHARDDGGLIPLHNACSFGHAEVVSLLLCQGADPNARDNWNYTPLHEAAIKGKIDVCIVLLQHGADPNIRNTDGKSALDLADPSAKAVLTGEYKKDELLEAARSGNEEKLMALLTPLNVNCHASDGRKSTPLHLAAGYNRVRIVQLLLQHGADVHAKDKGGLVPLHNACSYGHYEVTELLLKHGACVNAMDLWQFTPLHEAASKNRVEVCSLLLSHGADPTLVNCHGKSAVDMAPTPELRERLTYEFKGHSLLQAAREADLAKVKKTLALEIINFKQPQSHETALHCAVASLHPKRKQVTELLLRKGANVNEKNKDFMTPLHVAAERAHNDVMEVLHKHGAKMNALDTLGQTALHRAALAGHLQTCRLLLSYGSDPSIISLQGFTAAQMGNEAVQQILSESTPIRTSD

Variants of: B1
Assay: proteomic peptide phage display deep mutational scan (ProP-PD DMS): M13 P8 16-mer library selected against immobilised GST-tagged bait for four days (rounds), NGS of the eluted pools per day and pseudo-replica; bait immobilised on MaxiSorp plates (10 µg), library pre-cleared on GST, 2 h binding at 4 °C, five washes; one round per day, days 1-4; value from days 2 and 3

In order of rising screen value:
1. chain 1 T4Y  0.00014 average fractional NGS count over selection days 2 and 3 (reads of this peptide / all reads for the bait, averaged over …
2. chain 1 E10G  0.00014 average fractional NGS count over selection days 2 and 3 (reads of this peptide / all reads for the bait, averaged over …
3. chain 1 Y1P  0.000164 average fractional NGS count over selection days 2 and 3 (reads of this peptide / all reads for the bait, averaged over …
4. chain 1 D8V  0.000175 average fractional NGS count over selection days 2 and 3 (reads of this peptide / all reads for the bait, averaged over …
5. chain 1 P3Y  0.000178 average fractional NGS count over selection days 2 and 3 (reads of this peptide / all reads for the bait, averaged over …
6. chain 1 E10Q  0.000224 average fractional NGS count over selection days 2 and 3 (reads of this peptide / all reads for the bait, averaged over …
7. chain 1 W11I  0.000232 average fractional NGS count over selection days 2 and 3 (reads of this peptide / all reads for the bait, averaged over …
8. chain 1 W11Q  0.000237 average fractional NGS count over selection days 2 and 3 (reads of this peptide / all reads for the bait, averaged over …
9. chain 1 E10S  0.000255 average fractional NGS count over selection days 2 and 3 (reads of this peptide / all reads for the bait, averaged over …
10. chain 1 P3H  0.00026 average fractional NGS count over selection days 2 and 3 (reads of this peptide / all reads for the bait, averaged over …
11. chain 1 T4V  0.000271 average fractional NGS count over selection days 2 and 3 (reads of this peptide / all reads for the bait, averaged over …
12. chain 1 Y1I  0.00029 average fractional NGS count over selection days 2 and 3 (reads of this peptide / all reads for the bait, averaged over …
13. chain 1 Y1N  0.000299 average fractional NGS count over selection days 2 and 3 (reads of this peptide / all reads for the bait, averaged over …
14. chain 1 Q15K  0.000314 average fractional NGS count over selection days 2 and 3 (reads of this peptide / all reads for the bait, averaged over …
15. chain 1 D8W  0.000322 average fractional NGS count over selection days 2 and 3 (reads of this peptide / all reads for the bait, averaged over …
16. chain 1 A13M  0.000333 average fractional NGS count over selection days 2 and 3 (reads of this peptide / all reads for the bait, averaged over …
17. chain 1 D8N  0.000367 average fractional NGS count over selection days 2 and 3 (reads of this peptide / all reads for the bait, averaged over …
18. chain 1 D8I  0.000369 average fractional NGS count over selection days 2 and 3 (reads of this peptide / all reads for the bait, averaged over …
19. chain 1 D8M  0.000462 average fractional NGS count over selection days 2 and 3 (reads of this peptide / all reads for the bait, averaged over …
20. chain 1 K12M  0.000504 average fractional NGS count over selection days 2 and 3 (reads of this peptide / all reads for the bait, averaged over …
21. chain 1 T4M  0.000565 average fractional NGS count over selection days 2 and 3 (reads of this peptide / all reads for the bait, averaged over …
22. chain 1 E9L  0.000568 average fractional NGS count over selection days 2 and 3 (reads of this peptide / all reads for the bait, averaged over …
23. chain 1 E9D  0.000572 average fractional NGS count over selection days 2 and 3 (reads of this peptide / all reads for the bait, averaged over …
24. chain 1 E10F  0.000572 average fractional NGS count over selection days 2 and 3 (reads of this peptide / all reads for the bait, averaged over …
25. chain 1 Y1M  0.000646 average fractional NGS count over selection days 2 and 3 (reads of this peptide / all reads for the bait, averaged over …
26. chain 1 D14K  0.000793 average fractional NGS count over selection days 2 and 3 (reads of this peptide / all reads for the bait, averaged over …
27. chain 1 A13F  0.000843 average fractional NGS count over selection days 2 and 3 (reads of this peptide / all reads for the bait, averaged over …
28. chain 1 E10H  0.000923 average fractional NGS count over selection days 2 and 3 (reads of this peptide / all reads for the bait, averaged over …
29. chain 1 P3E  0.000951 average fractional NGS count over selection days 2 and 3 (reads of this peptide / all reads for the bait, averaged over …
30. chain 1 E9H  0.000956 average fractional NGS count over selection days 2 and 3 (reads of this peptide / all reads for the bait, averaged over …
31. chain 1 W11V  0.000957 average fractional NGS count over selection days 2 and 3 (reads of this peptide / all reads for the bait, averaged over …
32. chain 1 N6R  0.000965 average fractional NGS count over selection days 2 and 3 (reads of this peptide / all reads for the bait, averaged over …
33. chain 1 Q15D  0.000993 average fractional NGS count over selection days 2 and 3 (reads of this peptide / all reads for the bait, averaged over …
34. chain 1 N6D  0.00102 average fractional NGS count over selection days 2 and 3 (reads of this peptide / all reads for the bait, averaged over …
35. chain 1 D14L  0.00106 average fractional NGS count over selection days 2 and 3 (reads of this peptide / all reads for the bait, averaged over …
36. chain 1 N6K  0.0012 average fractional NGS count over selection days 2 and 3 (reads of this peptide / all reads for the bait, averaged over …
37. chain 1 E9F  0.00128 average fractional NGS count over selection days 2 and 3 (reads of this peptide / all reads for the bait, averaged over …
38. chain 1 A13W  0.00128 average fractional NGS count over selection days 2 and 3 (reads of this peptide / all reads for the bait, averaged over …
39. chain 1 E10L  0.00181 average fractional NGS count over selection days 2 and 3 (reads of this peptide / all reads for the bait, averaged over …
40. chain 1 K12F  0.00191 average fractional NGS count over selection days 2 and 3 (reads of this peptide / all reads for the bait, averaged over …
41. chain 1 Y1T  0.00199 average fractional NGS count over selection days 2 and 3 (reads of this peptide / all reads for the bait, averaged over …
42. chain 1 E9K  0.00203 average fractional NGS count over selection days 2 and 3 (reads of this peptide / all reads for the bait, averaged over …
43. chain 1 Q15M  0.00211 average fractional NGS count over selection days 2 and 3 (reads of this peptide / all reads for the bait, averaged over …
44. chain 1 Q15W  0.00273 average fractional NGS count over selection days 2 and 3 (reads of this peptide / all reads for the bait, averaged over …
45. chain 1 E9M  0.00292 average fractional NGS count over selection days 2 and 3 (reads of this peptide / all reads for the bait, averaged over …
46. chain 1 Q15I  0.00307 average fractional NGS count over selection days 2 and 3 (reads of this peptide / all reads for the bait, averaged over …
47. chain 1 N6V  0.00339 average fractional NGS count over selection days 2 and 3 (reads of this peptide / all reads for the bait, averaged over …
48. chain 1 Q15E  0.00341 average fractional NGS count over selection days 2 and 3 (reads of this peptide / all reads for the bait, averaged over …
49. chain 1 K12G  0.00482 average fractional NGS count over selection days 2 and 3 (reads of this peptide / all reads for the bait, averaged over …
50. chain 1 A13Y  0.00559 average fractional NGS count over selection days 2 and 3 (reads of this peptide / all reads for the bait, averaged over …
51. chain 1 D14R  0.0071 average fractional NGS count over selection days 2 and 3 (reads of this peptide / all reads for the bait, averaged over …
52. chain 1 K12A  0.00844 average fractional NGS count over selection days 2 and 3 (reads of this peptide / all reads for the bait, averaged over …
53. chain 1 K12T  0.00858 average fractional NGS count over selection days 2 and 3 (reads of this peptide / all reads for the bait, averaged over …
54. chain 1 Q15Y  0.00911 average fractional NGS count over selection days 2 and 3 (reads of this peptide / all reads for the bait, averaged over …
55. chain 1 E9Y  0.0102 average fractional NGS count over selection days 2 and 3 (reads of this peptide / all reads for the bait, averaged over …
56. chain 1 D14W  0.0112 average fractional NGS count over selection days 2 and 3 (reads of this peptide / all reads for the bait, averaged over …
57. chain 1 D14M  0.0116 average fractional NGS count over selection days 2 and 3 (reads of this peptide / all reads for the bait, averaged over …
58. chain 1 K12W  0.0129 average fractional NGS count over selection days 2 and 3 (reads of this peptide / all reads for the bait, averaged over …
59. chain 1 Q15H  0.0369 average fractional NGS count over selection days 2 and 3 (reads of this peptide / all reads for the bait, averaged over …
60. chain 1 D14H  0.038 average fractional NGS count over selection days 2 and 3 (reads of this peptide / all reads for the bait, averaged over …

Variants of: B2
Assay: as above

In order of falling screen value:
1. chain 1 S9H  0.00219 average fractional NGS count over selection days 2 and 3 (reads of this peptide / all reads for the bait, averaged over …
2. chain 1 S9D  0.00106 average fractional NGS count over selection days 2 and 3 (reads of this peptide / all reads for the bait, averaged over …
3. chain 1 Q14A  0.00095 average fractional NGS count over selection days 2 and 3 (reads of this peptide / all reads for the bait, averaged over …
4. chain 1 L6Y  0.000851 average fractional NGS count over selection days 2 and 3 (reads of this peptide / all reads for the bait, averaged over …
5. chain 1 Q2T  0.000819 average fractional NGS count over selection days 2 and 3 (reads of this peptide / all reads for the bait, averaged over …
6. chain 1 P10A  0.000707 average fractional NGS count over selection days 2 and 3 (reads of this peptide / all reads for the bait, averaged over …
7. chain 1 D12V  0.000643 average fractional NGS count over selection days 2 and 3 (reads of this peptide / all reads for the bait, averaged over …
8. chain 1 L3Q  0.000641 average fractional NGS count over selection days 2 and 3 (reads of this peptide / all reads for the bait, averaged over …
9. chain 1 L3F  0.000552 average fractional NGS count over selection days 2 and 3 (reads of this peptide / all reads for the bait, averaged over …
10. chain 1 P4G  0.000551 average fractional NGS count over selection days 2 and 3 (reads of this peptide / all reads for the bait, averaged over …
11. chain 1 L6M  0.000442 average fractional NGS count over selection days 2 and 3 (reads of this peptide / all reads for the bait, averaged over …
12. chain 1 Q2I  0.000434 average fractional NGS count over selection days 2 and 3 (reads of this peptide / all reads for the bait, averaged over …
13. chain 1 Q2Y  0.000238 average fractional NGS count over selection days 2 and 3 (reads of this peptide / all reads for the bait, averaged over …
14. chain 1 L3Y  0.000217 average fractional NGS count over selection days 2 and 3 (reads of this peptide / all reads for the bait, averaged over …
15. chain 1 P4T  0.000173 average fractional NGS count over selection days 2 and 3 (reads of this peptide / all reads for the bait, averaged over …
